Holding throughout (conditions): both partners purified
The target of experiment [1] is T1, untagged ubiquitin (UniProt P0CG48 1-76).
T1 construct: also called mono-ubiquitin; Mono Ub; source: E. coli, purified (heated to 85 °C, SP-Sepharose, Superdex 75)
Nature of the experiment: ITC.

Experiment [2] concerns the target T2, 6His-ubiquitin (human, UniProt P0CG48 1-76).
T2 construct: also called His-tagged human ubiquitin; His-tagged ubiquitin; source: E. coli BL21(DE3), purified (Ni-NTA)
Put plainly: pull-down; GST-tagged UBD (25 µM) mixed with His-tagged ubiquitin (75 µM) in 25 mM Tris-HCl pH 8.0, 100 mM NaCl, 0.1 mM TCEP; glutathione sepharose 4B, 1 h at 2 °C; eluted with glutathione, Coomassie.

For experiment [3], the target named is T3, human ubiquitin (His tag cleaved, for the co-crystal) (human, UniProt P0CG48 1-76).
T3 construct: also called free ubiquitin; UbS1; source: E. coli BL21(DE3), purified (Ni-NTA, TEV cleavage, HiTrap S, Superdex 75)
Put plainly: crystal structure.

The target of experiment [4] is T1, untagged ubiquitin. Nature of the experiment: ITC. The source holds these as a separate data set. In general terms: Isothermal titration calorimetry measures the heat released or taken up as one component is titrated into another.

B1: OtDUB_(170–264) (the UBD) (domain or fragment)
chain: VNFLSENRMITSAAAALADTLLKNNNRITEGVLVDRIFDNKILSVQEKQQLLNNLLDNHIKENKSLTKESLTRMLASTHFVQQQANVLLNEKFNK
notes: source: E. coli Rosetta DE3, purified (glutathione resin, SEC)
On to B1, for which the Kd (usually the equilibrium constant for the complex coming apart) in experiment [1] stood at 5.3 ± 3.9 nM.

B2: GST-UBD_(170–259) (domain or fragment)
chain: VNFLSENRMITSAAAALADTLLKNNNRITEGVLVDRIFDNKILSVQEKQQLLNNLLDNHIKENKSLTKESLTRMLASTHFVQQQANVLLN
notes: also called GST-tagged UBD; OtDUBUBD; source: E. coli BL21(DE3), purified (Ni-NTA, GSTrap HP)
In the case of B2, the binding result in experiment [2] is “binds”.

B3: GST-UBD_(170–259) D204A/D208A (domain or fragment)
chain: VNFLSENRMITSAAAALADTLLKNNNRITEGVLVARIFANKILSVQEKQQLLNNLLDNHIKENKSLTKESLTRMLASTHFVQQQANVLLN
notes: also called charge-neutralizing mutant; source: E. coli BL21(DE3), purified (Ni-NTA, GSTrap HP)
Turning to B3, in experiment [2], the binding result is given as “binds”.

B4: GST-UBD_(170–259) N222A/D226A (domain or fragment)
chain: VNFLSENRMITSAAAALADTLLKNNNRITEGVLVDRIFDNKILSVQEKQQLLANLLANHIKENKSLTKESLTRMLASTHFVQQQANVLLN
notes: as for B3
Consider B4, for which the binding result in experiment [2] is recorded as “binds”.

B5: GST-UBD_(170–259) F207D (domain or fragment)
chain: VNFLSENRMITSAAAALADTLLKNNNRITEGVLVDRIDDNKILSVQEKQQLLNNLLDNHIKENKSLTKESLTRMLASTHFVQQQANVLLN
notes: source: E. coli BL21(DE3), purified (Ni-NTA, GSTrap HP)
For the molecule B5, in experiment [2], the binding result is on record as “binds”.

B6: OtDUB_(1–259) (domain or fragment)
chain: GMANDQDLSNPEYLYTEDDINQLLKHYLGLDDRISIIQHVALNESLLLKQTLHQVLSDIFSGMQEKAVIPLHTGNNHWVAMAIKKGMNDDIVISYNDPMGVSIDDKVTLINCIKELCPGAKINDLQTVQQTNVYDCGPFVVDNLIKMSQGQPILSTEEAKQQAQNIRQSQVNFLSENRMITSAAAALADTLLKNNNRITEGVLVDRIFDNKILSVQEKQQLLNNLLDNHIKENKSLTKESLTRMLASTHFVQQQANVLLN
notes: also called OTT_1962 DUB domain with VR-1/UBD; DUB-UBD segment; source: E. coli BL21(DE3), purified (Ni-NTA, TEV cleavage, HiTrap Q, Superdex 75)
Turning to B6, the binding result in experiment [3] is recorded as “binds”.

B7: OtDUB_(1–177)-C135A (domain or fragment)
chain: MANDQDLSNPEYLYTEDDINQLLKHYLGLDDRISIIQHVALNESLLLKQTLHQVLSDIFSGMQEKAVIPLHTGNNHWVAMAIKKGMNDDIVISYNDPMGVSIDDKVTLINCIKELCPGAKINDLQTVQQTNVYDAGPFVVDNLIKMSQGQPILSTEEAKQQAQNIRQSQVNFLSENR
On to B7, for which the affinity in experiment [4], expressed as Kd, was 6.3 ± 0.2 µM.
